assay: soluble on expression in E. coli; label from the status in PepcDB or PDB records

Row | Sequence | soluble on expression in E. coli
1 | MSQFTHYPPVSDKQLGFFIDSSRCSGCKACQVACKDKNNLEVGRRFRRVYEVKGGSFIPTGQGGVSNNVFAYTLSISCNHCADPVCTKNCPTTAMHKRPGDGIVRVDTDKCVGCGYCAWSCPYGAPQLNEQTGQMSKCDMCVDLLAKGEPPVCVATCPLEAIKFGPIDELRAKYGSVCDVNGLPDSSITKPNLVVKAHQGAEKEGKRHA | not soluble
2 | ILTENTPYFEQLSVPQRSVGRIIGRGGETIRSICKASGAKITCDKESEGTLLLSRLIKISGTQKEVAAAKHLILEKVSEDEELRKRIAHSA | soluble
3 | MGSDKIHHHHHHSDLTSAQVAERLLVSQPKISLLENGHRAISPRDVRDLCELYGVTDRQVIDSLMRMARESGQQGWWNTYGNIPNSVYIGLETDASSIHTYEPMVIPDLLQTPAYAHAVIETTVPPIPAQQADARLKVRLRRQHRIYDPARPLRLWVVLDEPALHRVVGRPDIMREQLEHLNALSAEPHITVQVLPYTAGAHPGRQGQFSVLRFADSPEAGMVYLERFTSDLYLKKPSEVQQYSMMYDHLQARALSPEGTRDFVTDVTKSHIDVASRP | not soluble
4 | IPAGELQIIDKIDAAFKVAATAAATAPADDKFTVFEAAFNKAIKETTGGAYDTYKCIPSLEAAVKQAYAATVAAAPQVKYAVFEAALTKAITAMSEVQKVSQ | soluble
5 | MKSLEEILQYNEKFVEEKKYEEFVAGKFPNKKMVIISCMDTRLVELLPKAMNMRNGDVKIIKVAGAVISHPFGSIMRSILVAVYELGADEVCVVGHHDCGMAKIQASSTIEKMKERGITEEKLDMLRYSGIDLEQFLRGFSSVEESVEHSVSVLRNHPLLPEEVPVHGLVIDPDTGKLDLVVNGYDN | not soluble
6 | MSHLRIPANWKVKRSTPFFTKENVPAALLSHHNTAAGVFGQLCVMEGTVTYYGFANETATEPEVKVVINAGQFATSPPQYWHRVELSDDARFNIHFWVEEDHQGEEMYQQKKA | not soluble
7 | MGSDKIHHHHHHMNLPTAHPLIDEATLTIVVCHILDSKTATLGEWHSEAIAHHIINNVTAGLQRITGIANNGSEQLSWSVILKILHLQPENAGSIFNSSQDPTHWNYWQREALIYTSGMLDNLTGDLVAPRCFGITEPSANVVWLWLEDIQGSSGSTWTMERFGLAARHLGYLQGSYVMAQSLPYEPWLSRGWHRAWVSNIDNTALEAWREPAVWQHPLLKEIFSPDIGDRVMDLWSDRHILLDAVDKAPHTLCHFDITPNNLFSRHNPDGNDQTVLIDWSFVGYGVLGEDIINLVLDSVFLLFVNGSSLIPLEKLVLEGYLTGLRSAGWNGDERIVRFTYAALAALHFGLIAGRLLKLVQNESRHSWLEQRFGRTFDEIITSRAIAITHGLELADEARLLLPSLFVIN | not soluble
8 | EVDPFVELHVRAMGLAEVYGKMNGYMPMNYEYNVGRVETGIAKALGIKPSRDYEGIVAESQKLAAKAPPRPPVLCPGCPHSASFYAIRRVVDELGDAALPS | not soluble
9 | PKHGKRYRALLEKVDPNKIYTIDEAAHLVKELATAKFDETVEVHAKLGIDPRRSDQNVRGTVSLPHGGRIEFRNDKTGAIHAPVGKASFPPEKLADNIRAFIRALEAHKPEGAKGTFLRSVYVTTTMGPSVRINPHS | soluble
10 | MLDKLDAALRFQQEALNLRAQRQEVLAANIANADTPGYQARDIDFASELKKVMQRGRDATSVVALTMTSTQHIPAQALTPPTAELQYRIPDQPSLDGNTVDMDRERTQFADNSLQYQMSLSALSGQIKGMMNVLQSGN | not soluble
11 | MEDDDSPSSRDLDAQNPYDRLLALDTSTVDPNCNLDSVSAIYLAMKSSKLECVDERGQDSLITSVCMEDEEDEELDEFDPYLFIKNLPNLSSVVPTFRPVLLPKQTRSCPPISLVLDLDETLVHSTLEPCGEVDFTFPVNFNEEEHMVYVRCRPHLKEFMERVSRLFEIIIFTASQSIYAEQLLNVLDPKRKLFRHRVYRDSCVFFDGNYLKDLSVLGRDLSRVIIVDNSPQAFGFQVENGVPIESWFNDPSDKELLHLLPFLESLIGVEDVRPMIAKKFNLREKIDAAVAAPEYPAEAGDPFER | soluble

Reference: the DeepSol protein solubility set
